According to US20190367592A1 (AC IMMUNE, published 2019):
Where no end group is shown, it is not given here.

Columns and labels:
[1] = molecular target: T1, recombinant human Tau monomer, 2N4R isoform (amino acids 2-441) (human, UniProt P10636-8 2-441); experiment: SPR, hIgG captured, Tau monomer analyte, 1:1 fit
T1 construct: range 2-441; N-terminal His-tag removed with TEV protease; also called monomeric Tau
Procedure: Affinity of selected antibodies was assessed at 25° C. using a Biacore T200 instrument, the GE Biacore human IgG capture kit and a CM5 Series S chip. The hIgG were diluted to 0.25 μg/ml in 10 mM HEPES pH7.4, 150 mM NaCl, 0.05% Tween 20 (running buffer, HBSP) and captured at a flow rate of 10 μl/min for 150 seconds. Kinetic data was collected for Human Tau monomer injected at concentrations of 0, 0.4, 1.2, 3.7, 11, 11, 33 and 100 nM in HBSP, using a flow rate of 30 μl/min, a 300 second association phase and a 600 second dissociation phase. Between cycles the surface was regenerated using two sequential 30 second injections of 3M MgCl at 10 μl/min. Data was fit to a 1:1 binding model (Table 15).

[2] = molecular target: T1, recombinant human Tau monomer, 2N4R …; experiment: SPR, mIgG2a captured, Tau monomer analyte, 1:1 fit
From the text: Antibody heavy and light chains were constructed via gene synthesis and subcloning of the resulting DNA into murine IgG2a (heavy chain) and murine kappa (light chain) mammalian expression vectors. Antibodies were expressed in CHO or 293T cells by transient co-transfection of the heavy chain and light chain plasmids and were purified with affinity resin MabSelectSure (GE Healthcare Life Sciences). Purified recombinant antibodies were screened for binding to Tau monomer protein on a Biacore T200 surface plasmon resonance instrument using a mouse IgG capture kit and a Series S CM5 chip. Antibodies in mIgG2a format diluted in 10 mM HEPES pH7.4, 150 mM NaCl, 0.05% Tween 20 (running buffer, HBSP) were captured for 30 or 45 seconds at a concentration of 1 μg/ml (antibodies 26C1, 94B2-C1, 52F6-F11.v1, 52F6-F11.v2, 11E10-B8, 55E7-F11, 125B1-H3, 123E9-A1, 30G1-B2, 66F5-A1, 89F4-A1, 93A8-D2 and 126F11-G11) or for 70 or 150 seconds at a concentration of 0.1 μg/ml (antibodies 19H6-F7, 3A4-H4, 54C1-H11 and 37D3-H9) using a flow rate of 10 μl/min. […] Association and dissociation times were monitored for 180-480 seconds and for 300-600 seconds respectively. Antibody 37D3-H9 was selected for further analysis due to the high affinity (Table 6) and the absence of NXS/T glycosylation motifs in the CDRs.

Tau fragment 1-15 = molecular target: T2, Tau fragment 1-15 (human, UniProt P10636-8 1-15); experiment: ELISA on Tau 15-mer peptides, O.D.; conditions of this panel not given
T2 construct: range 1-15
T2 peptide (looked up): MAEPRQEFEVMEDHA

Tau fragment 28-42 = molecular target: T3, Tau fragment 28-42 (human, UniProt P10636-8 28-42, not fully specified); experiment: as above
T3 construct: range 28-42
T3 peptide (looked up): GYTMHQDQEGDTDAG

Tau fragment 37-51 = molecular target: T4, Tau fragment 37-51 (human, UniProt P10636-8 37-51); experiment: as above
T4 construct: range 37-51
T4 peptide (looked up): GDTDAGLKESPLQTP

MAPT(10-24) = molecular target: T5, MAPT(10-24) (human, also: biotinylated, site not given here); experiment: as above
T5 construct: also called Tau fragment 10-24
T5 peptide: VMEDHAGTYGLGDRK

[3] = molecular target: T6, full-length human Tau (flTau) (human, UniProt P10636-8 1-441); experiment: SPR, hybridoma Ab on anti-IgG chip, flTau analyte
T6 construct: range 1-441; bought (SignalChem); also called human Tau-441
Procedure: Affinity of non-purified antibodies in serum-free hybridoma supernatants was estimated by surface plasmon resonance using a Biacore T-100 instrument (GE Healthcare, United Kingdom). Antibodies were immobilized onto an anti-IgG biosensor chip, and flTau (SignalChem, Canada) was used as the target analyte. Kinetic analysis was done using a 1:1 Langmuir fit model.
For affinity measurements to flTau, antibodies were measured using SPR on a Biacore instrument, with the KDs determined. Biacore affinity measurements were done by immobilizing antibodies on an anti-IgG chip and using flTau as the target analyte.

[4] = molecular target: T1, recombinant human Tau monomer, 2N4R …; experiment: SPR screen, hIgG captured, Tau monomer analyte
[5] = molecular target: T1, recombinant human Tau monomer, 2N4R …; experiment: SPR high-resolution kinetics, hIgG1
[6] = molecular target: T1, recombinant human Tau monomer, 2N4R …; experiment: SPR screen, hIgG captured, Tau monomer analyte; remark: listed apart in the source
From the text: Antibody 125B11-H3 was humanized onto VH3 and Vκ1 consensus frameworks. The heavy chain graft included murine residues at position 78 (Kabat numbering system). The Vκ1 graft included murine residues in framework positions 43 and 87. The light chain of 113F5-F7 was also humanized onto the Vκ1 framework, with additional murine residues at framework positions 43 and 87. Humanized variant heavy chains (125B11) and light chains (125B11 and 113F5-F7) were co-transfected in multiple combinations and purified in 96-well format as described above. Humanized variants were then screened for affinity for human Tau monomer using the Biacore human IgG capture kit, a Series S CM5 chip and a Biacore T200 instrument. Antibodies were diluted to 2 μg/ml and captured for 15 seconds at 10 μl/min. Association and dissociation of 0, 100 and 500 nM human Tau monomer in HBSP was monitored for 180s and 300s respectively at a flow rate of 40 μl/min. A 1:1 binding model was applied to the results (Table 9).
Variants hu125B11.v17 (HC3+LC1), hu125B11.v26 (HC4+LC2) and hu125B 11.v28 (HC4+LC4) were selected for high-resolution kinetic analysis based on the affinity screen (Table 10). Antibody 94B2-C1 was humanized onto VH1 and Vx2 frameworks. The heavy chain graft also included murine residues at position 28, 29, 67, 69, 71, and 73 (Kabat numbering system). The Vκ2 graft also included murine residues in framework positions 2, 36, and 46. […] Variant hu94B2.v105 (heavy chain variant 94B2.HCl, light chain variant 94B2.LC13) was selected for detailed SPR characterization (Table 11).

Tau fragment 19-33 = molecular target: T7, Tau fragment 19-33 (human, UniProt P10636-8 19-33, not fully specified); experiment: ELISA on Tau 15-mer peptides, O.D.; conditions of this panel not given
T7 construct: range 19-33
T7 peptide (looked up): GLGDRKDQGGYTMHQ

[7] = molecular target: T1, recombinant human Tau monomer, 2N4R …; experiment: SPR single-cycle, human Fab capture kit, Tau monomer analyte; mean ± range, n=2
Procedure: Affinity of the humanized antibody variants was measured at 25° C. using a Biacore T200 instrument, the GE Biacore human FAb capture kit, and a CM5 Series S chip. Antibodies were diluted to 1 μg/ml in HBSP (10 mM HEPES pH7.4, 150 mM NaCl, 0.05% Tween 20) and captured at a flow rate of 10 μl/min for 180 seconds. Kinetic data were collected for human Tau monomer injected at 1.2, 3.7, 11, 33 and 100 nM in HBSP using the Single Cycle Kinetics methodology and a flow rate of 30 μl/min. Each concentration of Tau monomer was injected for a period of 3 minutes and dissociation was monitored for ten minutes. Between cycles, the surface was regenerated with two sequential one-minute injections of 10 mM glycine pH2.1. Data was fit to a 1:1 binding model using BIAEvaluation software. Each antibody was analyzed twice within the experiment; data in Table 22 are shown as mean±range.

T1 sequence (P10636 other isoform, or with tags, fused parts or gaps limits assumed): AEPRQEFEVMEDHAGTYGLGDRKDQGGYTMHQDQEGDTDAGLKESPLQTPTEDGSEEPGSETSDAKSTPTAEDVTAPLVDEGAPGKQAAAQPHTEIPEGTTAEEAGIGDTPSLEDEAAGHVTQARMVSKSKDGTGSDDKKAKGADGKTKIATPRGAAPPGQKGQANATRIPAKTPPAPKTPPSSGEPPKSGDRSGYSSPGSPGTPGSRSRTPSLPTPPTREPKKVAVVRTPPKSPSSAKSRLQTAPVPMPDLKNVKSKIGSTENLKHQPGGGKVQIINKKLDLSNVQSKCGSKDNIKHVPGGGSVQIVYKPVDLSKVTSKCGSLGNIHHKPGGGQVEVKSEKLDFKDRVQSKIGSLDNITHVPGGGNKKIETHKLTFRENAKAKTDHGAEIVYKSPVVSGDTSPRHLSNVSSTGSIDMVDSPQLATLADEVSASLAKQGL
T6 sequence (P10636 other isoform, or with tags, fused parts or gaps limits assumed): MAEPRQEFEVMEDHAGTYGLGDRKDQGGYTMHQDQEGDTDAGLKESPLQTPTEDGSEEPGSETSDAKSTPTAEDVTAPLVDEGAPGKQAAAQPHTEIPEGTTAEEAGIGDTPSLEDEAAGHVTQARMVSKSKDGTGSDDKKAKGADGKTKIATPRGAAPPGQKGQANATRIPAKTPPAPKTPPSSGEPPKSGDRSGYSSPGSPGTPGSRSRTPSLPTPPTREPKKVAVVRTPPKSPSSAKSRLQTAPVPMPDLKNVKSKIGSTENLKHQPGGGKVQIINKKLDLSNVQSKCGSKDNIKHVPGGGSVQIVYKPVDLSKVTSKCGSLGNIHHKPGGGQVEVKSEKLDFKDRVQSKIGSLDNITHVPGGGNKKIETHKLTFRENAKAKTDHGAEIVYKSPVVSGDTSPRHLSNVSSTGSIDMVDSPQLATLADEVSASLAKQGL

B1: hu37D3-H9.v28.A4 hIgG1 (antibody, V domains shown)
VH: EVQLVESGGGLVQPGGSLRLSCAASGLIFRSYGMSWVRQAPGKGLEWVATINSGGTYTYYPDSVKGRFTISRDNSKNTLYLQMNSLRAEDTAVYYCANSYSGAMDYWGQGTLVTVSS
VL: DDVLTQTPLSLPVTPGQPASISCRSSQSIVHSNGNTYLEWYLQKPGQSPQLLIYKVSNRFSGVPDRFSGSGSGTDFTLKISRVEAEDVGVYYCFQGSLVPWTFGQGTKVEIK
notes: human IgG1, kappa
- Kd [1]: 1.5 nM
- koff [1]: 0.0011 s⁻¹
- kon [1]: 690000 M⁻¹ s⁻¹

B2: 94B2-C1 (antibody, mouse IgG2a, V domains shown)
VH: EVQLQQSGPELVKPGASMKISCKASGYSLTGYTMNWVKQSHGKNLEWIGLISPYNGVTSYNQKFKGKATLTVDKSSNTAYMELLSLTFEDSAVYYCARQGAYWGQGTLVTVSA
VL: not shown
- Kd [2]: 6 nM
- koff [2]: 0.0003 s⁻¹
- kon [2]: 50000 M⁻¹ s⁻¹
- binding result (Tau fragment 1-15): binds
- binding result (Tau fragment 28-42): no binding (tested: not given)
- binding result (Tau fragment 37-51): no binding (tested: not given)
- binding result (MAPT(10-24)): binds
- Kd [3]: 1.9 nM

B3: hu125B11.v26 (HC4+LC2) (antibody, IgG1, V domains shown)
VH: EVQLVESGGGLVQPGGSLRLSCAASRFIFSNYWMNWVRQAPGKGLEWVAQIRLKSDNYATHYAESVKGRFTISRDNSKNTLYLQMNSLRAEDTAVYYCTGGTTYWGQGTLVTVSS
VL: DIQMTQSPSSLSASVGDRVTITCKASQNVGTAVAWYQQKPGKAPKLLIYSASIRYTGVPSRFSGSGSGTDFTLTISSLQPEDFATYFCQQFRTYPYTFGQGTKVEIK
notes: also called hu125B11 HC4 + 125B11 LC2
- Kd [4]: 14 nM
- Kd [5]: 9.5 nM
- koff [5]: 0.0007 s⁻¹
- kon [5]: 70000 M⁻¹ s⁻¹

B4: hu125B11.v28 (HC4+LC4) (antibody, IgG1, V domains shown)
VH: EVQLVESGGGLVQPGGSLRLSCAASRFIFSNYWMNWVRQAPGKGLEWVAQIRLKSDNYATHYAESVKGRFTISRDNSKNTLYLQMNSLRAEDTAVYYCTGGTTYWGQGTLVTVSS
VL: DIQMTQSPSSLSASVGDRVTITCKASQNVGTAVAWYQQKPGKAPKLLIYSASIRYTGVPSRFSGSGSGTDFTLTISSLQPEDFATYYCQQFRTYPYTFGQGTKVEIK
notes: also called hu125B11 HC4 + 125B11 LC4
- Kd [4]: 17 nM
- Kd [5]: 10.2 nM
- koff [5]: 0.0007 s⁻¹
- kon [5]: 70000 M⁻¹ s⁻¹

B5: hu94B2.v105 (94B2.HC1 + 94B2.LC13) (antibody, IgG1, V domains shown)
VH: EVQLVQSGAEVKKPGASVKVSCKASGYSLTGYTMNWVRQAPGQGLEWIGLISPYNGVTSYNQKFKGRATLTVDKSTSTAYLELSSLRSEDTAVYYCARQGAYWGQGTLVTVSS
VL: DIVMTQTPLSLPVTPGQPASISCKSSQSLLDSDGKTYLNWLLQKPGQSPQRLIYLVSKLDSGVPDRFSGSGSGTDFTLKISRVEAEDVGVYYCWQGTHFPWTFGQGTKVEIK
notes: also called hu94B2 HC1 + LC13
- Kd [6]: 4.1 nM
- Kd [5]: 3.7 nM
- koff [5]: 0.0003 s⁻¹
- kon [5]: 80000 M⁻¹ s⁻¹

B6: 54C1-H11 (antibody, mouse IgG2a, V domains shown)
VH: EVQLVESGGDLVKPGGSLKVSCVASGFTFRSYGMSWVRQTPDKRLDWVATISSGGNYTYYPDSVKGRFTISRDNAKNTLYLQMSSLKSEDTAMYYCASSYSGAMDYWGQGTSVTVSS
VL: DTVMTQSPLSLPVSLGDQASISCRSSQSIVHSNGNTYLEWYLQKPGQSPKLLIYTVSNRFSGVPDRFSGSGSGTDFTLKISRVEAEDLGVYYCFQGSHVPWTFGGGTKLEIK
- Kd [2]: 0.6 nM
- koff [2]: 0.0002 s⁻¹
- kon [2]: 300000 M⁻¹ s⁻¹
- binding result (Tau fragment 1-15): no binding (tested: not given)
- binding result (Tau fragment 28-42): no binding (tested: not given)
- binding result (Tau fragment 37-51): no binding (tested: not given)
- binding result (Tau fragment 19-33): no binding (tested: not given)
- binding result (MAPT(10-24)): binds
- Kd [3]: 1.5 nM

B7: hu37D3-H9.v1 hIgG4.S228P (antibody)
heavy: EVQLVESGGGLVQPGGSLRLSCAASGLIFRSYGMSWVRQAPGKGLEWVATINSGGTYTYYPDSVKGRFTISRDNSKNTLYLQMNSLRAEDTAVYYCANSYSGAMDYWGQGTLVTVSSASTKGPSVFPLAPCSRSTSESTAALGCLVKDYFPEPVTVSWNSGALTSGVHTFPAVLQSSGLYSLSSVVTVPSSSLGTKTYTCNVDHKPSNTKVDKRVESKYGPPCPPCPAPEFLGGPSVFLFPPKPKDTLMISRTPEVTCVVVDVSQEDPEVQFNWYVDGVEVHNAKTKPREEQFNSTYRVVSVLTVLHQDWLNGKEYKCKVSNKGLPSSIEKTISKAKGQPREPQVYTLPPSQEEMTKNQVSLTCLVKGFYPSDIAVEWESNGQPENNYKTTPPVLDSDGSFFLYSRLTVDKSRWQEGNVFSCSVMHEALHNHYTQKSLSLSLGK
light: EDQLTQSPSSLSASVGDRVTITCRSSQSIVHSNGNTYFEWYQQKPGKSPKLLIYKVSNRFSGVPSRFSGSGSGTDFTLTISSLQPEDFATYYCFQGSLVPWTFGQGTKVEIKRTVAAPSVFIFPPSDEQLKSGTASVVCLLNNFYPREAKVQWKVDNALQSGNSQESVTEQDSKDSTYSLSSTLTLSKADYEKHKVYACEVTHQGLSSPVTKSFNRGEC
notes: also called hu37D3.v1 hIgG4
- Kd [1]: 2 nM
- koff [1]: 0.0013 s⁻¹
- kon [1]: 670000 M⁻¹ s⁻¹
- Kd [7]: 2.3 nM
- koff [7]: 0.001 s⁻¹
- kon [7]: 600000 M⁻¹ s⁻¹
